Data as given in patent US20040005324A1 (INTRACEL RESOURCES, published 2004).

Columns and labels:
[1] = target: RSV F glycoprotein of subgroup A isolate OK/9970/′85 (respiratory syncytial virus, subgroup A); assay: cell-based or functional assay
[2] = target: RSV F glycoprotein of subgroup B isolate WV/1293/′75 (respiratory syncytial virus, subgroup B); assay: cell-based or functional assay
[3] = target: RSV F glycoprotein of subgroup A isolate Bir/6190/′89 (respiratory syncytial virus, subgroup A); assay: cell-based or functional assay
[4] = target: RSV F glycoprotein of subgroup B isolate WV/17154/′85 (respiratory syncytial virus, subgroup B); assay: cell-based or functional assay
[5] = target: RSV F glycoprotein of subgroup B isolate WV/4843/′80 (respiratory syncytial virus, subgroup B); assay: cell-based or functional assay
[6] = target: RSV F glycoprotein of subgroup A isolate SL/10865/′84 (respiratory syncytial virus, subgroup A); assay: cell-based or functional assay
[7] = target: RSV F glycoprotein of subgroup B isolate WV/285R/′90 (respiratory syncytial virus, subgroup B); assay: cell-based or functional assay
[8] = target: RSV F glycoprotein of subgroup B isolate Wash/18537/′62 (respiratory syncytial virus, subgroup B, UniProt P13843 26-574); assay: cell-based or functional assay
[9] = target: RSV F glycoprotein of subgroup A isolate Wash/Bern/′65 (respiratory syncytial virus, subgroup A); assay: cell-based or functional assay
[10] = target: RSV F glycoprotein of subgroup B isolate WV/474R/′90 (respiratory syncytial virus, subgroup B); assay: cell-based or functional assay
[11] = target: RSV F glycoprotein of subgroup B isolate WV/401R/′90 (respiratory syncytial virus, subgroup B); assay: cell-based or functional assay
[12] = target: RSV F glycoprotein of subgroup A isolate SW/669/′59 (respiratory syncytial virus, subgroup A); assay: cell-based or functional assay
[13] = target: RSV F glycoprotein of subgroup A isolate SL/863/′84 (respiratory syncytial virus, subgroup A); assay: cell-based or functional assay
[14] = target: RSV F glycoprotein of subgroup B isolate WV/14617/′85 (respiratory syncytial virus, subgroup B); assay: cell-based or functional assay
[15] = target: RSV F glycoprotein of subgroup B isolate WV/20323/′87 (respiratory syncytial virus, subgroup B); assay: cell-based or functional assay
[16] = target: RSV F glycoprotein of subgroup A isolate Wash/11657/′60 (respiratory syncytial virus, subgroup A); assay: cell-based or functional assay
[17] = target: RSV F glycoprotein of subgroup A isolate SL/10849/′84 (respiratory syncytial virus, subgroup A); assay: cell-based or functional assay
[18] = target: RSV F glycoprotein of subgroup A isolate New/RSS-2/′76 (respiratory syncytial virus, subgroup A, UniProt P11209 26-574); assay: cell-based or functional assay
[19] = target: RSV F glycoprotein of subgroup B isolate WV/2B/′87 (respiratory syncytial virus, subgroup B); assay: cell-based or functional assay
[20] = target: RSV F glycoprotein of subgroup A isolate Bir/1734/′89 (respiratory syncytial virus, subgroup A); assay: cell-based or functional assay
BSA = BSA (UniProt P02769 25-607); assay: ELISA with purified Fab
[21] = target: RSV F glycoprotein of MARM v1153 (strain A2 escape mutant, substitution at aa 262) (respiratory syncytial virus strain A2, UniProt P03420 26-574); assay: cell-based or functional assay
[22] = target: RSV F glycoprotein of MARM v1200 (strain A2 escape mutant, substitution at aa 272) (respiratory syncytial virus strain A2, UniProt P03420 26-574); assay: cell-based or functional assay
[23] = target: RSV F glycoprotein of MARM v1129 (strain A2 escape mutant, substitution at aa 275) (respiratory syncytial virus strain A2, UniProt P03420 26-574); assay: cell-based or functional assay
[24] = target: RSV F glycoprotein of MARM vN151 (strain A2 escape mutant, substitution at aa 272) (respiratory syncytial virus strain A2, UniProt P03420 26-574); assay: cell-based or functional assay
[25] = target: RSV F glycoprotein of MARM v324 (strain A2 escape mutant, arginine to serine at residue 429 of the F1 subunit) (respiratory syncytial virus strain A2, UniProt P03420 26-574, limits assumed); assay: cell-based or functional assay
[26] = target: RSV F glycoprotein of wild type RSV strain A2 (respiratory syncytial virus strain A2, UniProt P03420 26-574); assay: cell-based or functional assay
[27] = target: RSV F glycoprotein of MARM v1214 (strain A2 escape mutant, substitution at aa 276) (respiratory syncytial virus strain A2, UniProt P03420 26-574); assay: cell-based or functional assay
[28] = target: RSV F glycoprotein of MARM v1237 (strain A2 escape mutant, substitution at aa 276) (respiratory syncytial virus strain A2, UniProt P03420 26-574); assay: cell-based or functional assay

BSA, sequence (P02769 25-607 limits assumed): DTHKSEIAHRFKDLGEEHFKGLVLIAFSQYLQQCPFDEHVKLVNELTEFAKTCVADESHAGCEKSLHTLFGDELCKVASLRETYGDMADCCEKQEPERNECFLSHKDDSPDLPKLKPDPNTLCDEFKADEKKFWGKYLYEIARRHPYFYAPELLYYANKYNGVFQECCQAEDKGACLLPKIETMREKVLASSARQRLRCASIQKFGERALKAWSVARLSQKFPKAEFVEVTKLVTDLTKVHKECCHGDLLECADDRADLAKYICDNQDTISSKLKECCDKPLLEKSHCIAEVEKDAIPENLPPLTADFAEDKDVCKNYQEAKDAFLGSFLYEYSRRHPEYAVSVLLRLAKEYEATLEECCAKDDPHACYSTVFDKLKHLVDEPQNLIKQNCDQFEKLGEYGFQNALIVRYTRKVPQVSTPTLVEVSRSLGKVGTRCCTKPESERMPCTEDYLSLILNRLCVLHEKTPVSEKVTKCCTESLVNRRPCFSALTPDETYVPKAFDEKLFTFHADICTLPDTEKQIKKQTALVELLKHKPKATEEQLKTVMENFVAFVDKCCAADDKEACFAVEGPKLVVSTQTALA

B1: human monoclonal Fab RSVF2-5 (Fab, V domains shown)
VH: LEESGGDLVQPGRSLRLSCSTSGFSFGDYPVNWFRQAPGKGLEWLGIVRSRLYGGTLQYAASVEGRFTISRDDSKSIAYLHMNSLKSEDTAVYYCGVPVANIDYWGQGTLVTVSS
VL: LTQPHSVSESLGKTVTISCTRAGGRIASNYVQWYQQRPGSSPTTVIYEDNQRPFGVPDRFSGSIDTSSNSASLTISGLKTEDEADYYCQSYDSENPWVFGGGTKLTVLG
notes: CH1 and CL are therefore probably not in these entries; also called RSV Fab F2-5
Question: Which results are given for B1?
Answer: Specific neutralization activity (µg/ml): purified Fab for 60% plaque reduction, Vero cells [1]: 1.4 µg/mL; Specific neutralization activity (µg/ml): purified Fab for 60% plaque reduction, Vero cells [2]: 1 µg/mL; Specific neutralization activity (µg/ml): purified Fab for 60% plaque reduction, Vero cells [3]: 2.4 µg/mL; Specific neutralization activity (µg/ml): purified Fab for 60% plaque reduction, Vero cells [4]: 2.1 µg/mL; Specific neutralization activity (µg/ml): purified Fab for 60% plaque reduction, Vero cells [5]: 0.5 µg/mL; Specific neutralization activity (µg/ml): purified Fab for 60% plaque reduction, Vero cells [6]: 0.4 µg/mL; Specific neutralization activity (µg/ml): purified Fab for 60% plaque reduction, Vero cells [7]: 0.6 µg/mL; Specific neutralization activity (µg/ml): purified Fab for 60% plaque reduction, Vero cells [8]: 0.5 µg/mL; Specific neutralization activity (µg/ml): purified Fab for 60% plaque reduction, Vero cells [9]: 0.6 µg/mL; Specific neutralization activity (µg/ml): purified Fab for 60% plaque reduction, Vero cells [10]: 0.9 µg/mL; Specific neutralization activity (µg/ml): purified Fab for 60% plaque reduction, Vero cells [11]: 0.7 µg/mL; Specific neutralization activity (µg/ml): purified Fab for 60% plaque reduction, Vero cells [12]: 3 µg/mL; Specific neutralization activity (µg/ml): purified Fab for 60% plaque reduction, Vero cells [13]: 0.2 µg/mL; Specific neutralization activity (µg/ml): purified Fab for 60% plaque reduction, Vero cells [14]: 2.6 µg/mL; Specific neutralization activity (µg/ml): purified Fab for 60% plaque reduction, Vero cells [15]: 0.8 µg/mL; Specific neutralization activity (µg/ml): purified Fab for 60% plaque reduction, Vero cells [16]: 1.6 µg/mL; Specific neutralization activity (µg/ml): purified Fab for 60% plaque reduction, Vero cells [17]: 0.9 µg/mL; Specific neutralization activity (µg/ml): purified Fab for 60% plaque reduction, Vero cells [18]: 1.9 µg/mL; Specific neutralization activity (µg/ml): purified Fab for 60% plaque reduction, Vero cells [19]: 0.3 µg/mL; Specific neutralization activity (µg/ml): purified Fab for 60% plaque reduction, Vero cells [20]: 1.1 µg/mL; binding result (BSA): no binding; Dose for 60% plaque reduction [21]: 0.9 µg/mL; Dose for 60% plaque reduction [22]: 0.3 µg/mL; Dose for 60% plaque reduction [23]: 0.5 µg/mL; Dose for 60% plaque reduction [24]: 0.4 µg/mL; Dose for 60% plaque reduction [25]: > 18 µg/mL; Dose for 60% plaque reduction [26]: 0.1 µg/mL; Dose for 60% plaque reduction [27]: 0.1 µg/mL; Dose for 60% plaque reduction [28]: < 0.3 µg/mL
